Test results reported in article PMC3816987 (Journal of molecular recognition : JMR, 2010).

B1: CCCTC-binding factor (Ctcf) phage clone, 136G-400T (domain or fragment, mouse, UniProt Q61164 136-400, looked up)
chain: GAYENEVSKEGLAESEPMICHTLPLPEGFQVVKVGANGEVETLEQGELPPQEDSSWQKDPDYQPPAKKTKKTKKSKLRYTEEGKDVDVSVYDFEEEQQEGLLSEVNAEKVVGNMKPPKPTKIKKKGVKKTFQCELCSYTCPRRSNLDRHMKSHTDERPHKCHLCGRAFRTVTLLRNHLNTHTGTRPHKCPDCDMAFVTSGELVRHRRYKHTHEKPFKCSMCDYASVEVSKLKRHIRSHTGERPFQCSLCSYASRDTYKLKRHMRT
modifications: biotin on the C-terminal biotinylation tag (E. coli BirA ligase)
B2: Tubby like protein 1 (Tulp1) phage clone, 125D-243E (domain or fragment, mouse, UniProt Q9Z273 125-243, looked up)
chain: DDDEEEEEKKEGKKEKSSLPPKKAPKEREKKAKALGPRGDVGSPDAPRKPLRTKKKEVGEGTKLRKAKKKGPGETDKDPAGSPAALRKEFPAAMFLVGEGGAAEKGVKKKGPPKGSEEE
modifications: biotin on the C-terminal biotinylation tag (E. coli BirA ligase)
B3: Hmg. nucleosomal binding domain 2 (Hmgn2) phage clone, 1M-56K (domain or fragment)
chain: not shown
modifications: biotin on the C-terminal biotinylation tag (E. coli BirA ligase)
B4: IQ motif containing GTPase activating protein 2 (Iqgap2) phage clone, 1232E-1368E (domain or fragment, mouse, UniProt Q3UQ44 1232-1368, looked up)
chain: EKSDLLNELLESLGEVPTVESFLGEGAVDPNDPNKENTLNQLSKTEISLSLTSKYDVKDGEAVDGRSLMIKTKKLIIDVTRNQPGSTLTEILETPATGQQELEHAKDMESRAVVDSRTPEEGKQSQAVIEDARLPLE
modifications: biotin on the C-terminal biotinylation tag (E. coli BirA ligase)
B5: Regulated endocrine-specific protein 18 (Resp18) phage clone, 68V-134K (domain or fragment, mouse, UniProt P47939-1 68-134, looked up)
chain: VPEGMFWADDIAYELMTKKVEHLSRLHPQYPCRKDMKAVSPTANAGVRSKQEEKLQLLSPQKSPTVK-{biotinylation tag(biotin)}

molecular target: T1, GST fusion protein of Tulp1-N (1M-298Q) (mouse, UniProt Q9Z273 1-298); assay: phage binding assay
T1 sequence (looked up): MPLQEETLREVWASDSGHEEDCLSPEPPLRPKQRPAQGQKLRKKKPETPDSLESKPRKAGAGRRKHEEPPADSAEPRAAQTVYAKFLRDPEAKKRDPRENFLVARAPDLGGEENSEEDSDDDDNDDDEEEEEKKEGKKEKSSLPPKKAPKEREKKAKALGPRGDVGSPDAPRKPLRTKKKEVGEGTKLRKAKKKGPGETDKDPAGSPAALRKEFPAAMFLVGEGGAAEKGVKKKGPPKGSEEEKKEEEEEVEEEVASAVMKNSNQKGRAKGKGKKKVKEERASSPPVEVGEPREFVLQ

Binder | binding specificity, clonal phage vs. control phage [X]
B1 | ~7.7
B2 | ~32.8
B3 | ~37.8

molecular target: T2, GST-free tubby-N (tubby N-terminus, 1M-242P) (mouse, UniProt P50586 1-242); assay: phage binding assay
T2 sequence (looked up): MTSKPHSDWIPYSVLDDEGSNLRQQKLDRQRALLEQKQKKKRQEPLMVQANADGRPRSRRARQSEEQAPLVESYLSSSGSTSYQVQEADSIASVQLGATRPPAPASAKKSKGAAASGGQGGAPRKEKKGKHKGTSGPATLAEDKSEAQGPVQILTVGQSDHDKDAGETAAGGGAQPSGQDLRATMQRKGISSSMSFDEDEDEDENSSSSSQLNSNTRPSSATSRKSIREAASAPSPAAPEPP

Binder | binding specificity, clonal phage vs. control phage [X]
B1 | ~117
B2 | ~49
B3 | ~33.4
B4 | ~53.2
B5 | ~10.3
